# Data published in patent publication US20220380776A1.
# Target: CD46 (UniProt P15529)
# Assay: Kd, method not stated (column head 'Kd (Oleks)')
# Chain of UniProt P15529 (P15529 35-343 limits assumed): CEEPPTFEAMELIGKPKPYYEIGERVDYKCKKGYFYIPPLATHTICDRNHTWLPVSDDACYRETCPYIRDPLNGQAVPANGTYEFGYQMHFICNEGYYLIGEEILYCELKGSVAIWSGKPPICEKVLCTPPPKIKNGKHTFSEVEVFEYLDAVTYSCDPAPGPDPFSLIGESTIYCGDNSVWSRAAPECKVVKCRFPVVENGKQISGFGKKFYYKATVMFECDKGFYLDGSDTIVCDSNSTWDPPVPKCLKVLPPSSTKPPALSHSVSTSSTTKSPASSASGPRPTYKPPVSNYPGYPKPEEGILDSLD
substance,measurement,value
Ad35 knob A8: Ile192Val Ile256Val,Kd,0.0137 µM
